How the values were obtained:
MK2-U = target: T1, MK2-U (Homo sapiens, UniProt P49137+P63279); experiment: Trans-SUMOylation by MK2-U; assay type: cell-based; conditions: protein 2 construct coexpressed with MK2-U and EGFP-SUMO1 in HEK293, western blot
T1 construct: expressed in transfected cells; host or cells: HEK293

JUN-U = target: T2, JUN-U (Homo sapiens, UniProt P05412+P63279); experiment: Trans-SUMOylation by JUN-U; assay type: cell-based; conditions: protein 2 construct coexpressed with JUN-U and EGFP-SUMO1 in HEK293; western blot; Table 1
T2 construct: expressed in transfected cells; host or cells: HEK293
T2 sequence (P05412+P63279 fused): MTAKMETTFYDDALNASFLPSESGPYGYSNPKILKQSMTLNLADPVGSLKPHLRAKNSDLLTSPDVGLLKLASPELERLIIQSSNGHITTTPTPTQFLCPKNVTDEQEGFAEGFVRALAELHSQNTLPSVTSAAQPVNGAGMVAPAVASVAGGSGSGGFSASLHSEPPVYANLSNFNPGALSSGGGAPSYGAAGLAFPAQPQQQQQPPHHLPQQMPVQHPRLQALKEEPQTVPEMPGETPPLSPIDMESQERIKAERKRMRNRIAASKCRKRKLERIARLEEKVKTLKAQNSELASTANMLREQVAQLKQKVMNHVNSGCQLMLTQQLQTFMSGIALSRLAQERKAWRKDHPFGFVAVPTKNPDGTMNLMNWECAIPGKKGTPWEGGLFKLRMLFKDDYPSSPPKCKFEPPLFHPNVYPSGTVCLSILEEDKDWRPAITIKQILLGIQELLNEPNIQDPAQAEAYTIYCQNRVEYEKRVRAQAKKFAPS

U-MK2 = target: T3, U-MK2 (Homo sapiens, UniProt P49137+P63279); experiment: Trans-SUMOylation by U-MK2; assay type: cell-based; conditions: protein 2 construct coexpressed with U-MK2 and EGFP-SUMO1 in HEK293, western blot
T3 construct: expressed in transfected cells; host or cells: HEK293
T3 sequence (P63279+P49137 fused): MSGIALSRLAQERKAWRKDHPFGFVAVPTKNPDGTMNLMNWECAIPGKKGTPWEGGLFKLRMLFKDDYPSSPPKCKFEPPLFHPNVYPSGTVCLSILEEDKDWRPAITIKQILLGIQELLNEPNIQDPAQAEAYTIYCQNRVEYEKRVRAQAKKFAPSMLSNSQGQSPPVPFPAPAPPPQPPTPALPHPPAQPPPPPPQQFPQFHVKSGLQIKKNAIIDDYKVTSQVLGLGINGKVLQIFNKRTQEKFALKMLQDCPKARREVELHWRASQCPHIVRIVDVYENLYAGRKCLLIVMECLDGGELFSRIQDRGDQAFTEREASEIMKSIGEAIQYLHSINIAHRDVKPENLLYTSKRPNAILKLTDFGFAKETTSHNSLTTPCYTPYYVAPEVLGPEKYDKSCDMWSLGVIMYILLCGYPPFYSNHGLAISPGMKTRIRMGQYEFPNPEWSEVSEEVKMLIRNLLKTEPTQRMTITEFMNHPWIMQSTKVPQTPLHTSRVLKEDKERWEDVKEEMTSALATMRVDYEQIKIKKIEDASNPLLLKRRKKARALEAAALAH

U-p38α = target: T4, U-p38α (Homo sapiens, UniProt P63279+Q16539); experiment: Trans-SUMOylation by U-p38α; assay type: cell-based; conditions: protein 2 construct coexpressed with U-p38α and EGFP-SUMO1 in HEK293, western blot
T4 construct: expressed in transfected cells; host or cells: HEK293
T4 sequence (P63279+Q16539 fused): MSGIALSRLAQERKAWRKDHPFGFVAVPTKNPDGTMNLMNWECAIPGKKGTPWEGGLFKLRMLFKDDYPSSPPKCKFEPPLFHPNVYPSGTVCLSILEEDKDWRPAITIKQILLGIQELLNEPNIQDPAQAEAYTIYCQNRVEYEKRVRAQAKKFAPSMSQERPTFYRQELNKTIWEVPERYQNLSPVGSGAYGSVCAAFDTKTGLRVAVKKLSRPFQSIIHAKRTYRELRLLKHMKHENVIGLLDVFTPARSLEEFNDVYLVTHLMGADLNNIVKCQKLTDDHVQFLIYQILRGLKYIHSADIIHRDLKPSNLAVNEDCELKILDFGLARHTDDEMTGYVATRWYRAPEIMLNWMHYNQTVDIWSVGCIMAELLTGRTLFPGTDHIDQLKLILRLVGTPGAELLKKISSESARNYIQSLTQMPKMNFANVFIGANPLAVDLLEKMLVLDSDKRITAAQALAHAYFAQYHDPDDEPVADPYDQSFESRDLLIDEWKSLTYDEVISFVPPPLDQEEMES

U-MK5 = target: T5, U-MK5 (Homo sapiens, UniProt P63279+Q8IW41); experiment: Trans-SUMOylation by U-MK5; assay type: cell-based; set-up: key: (++), strong TransSUMOylation; (+), TransSUMOylation; (+/−) weak TransSUMOylation; (−) no detectable TransSUMOylation; conditions: protein 2 construct coexpressed with U-MK5 and EGFP-SUMO1 in HEK293; western blot; Table 2
T5 construct: expressed in transfected cells; host or cells: HEK293
T5 sequence (P63279+Q8IW41 fused): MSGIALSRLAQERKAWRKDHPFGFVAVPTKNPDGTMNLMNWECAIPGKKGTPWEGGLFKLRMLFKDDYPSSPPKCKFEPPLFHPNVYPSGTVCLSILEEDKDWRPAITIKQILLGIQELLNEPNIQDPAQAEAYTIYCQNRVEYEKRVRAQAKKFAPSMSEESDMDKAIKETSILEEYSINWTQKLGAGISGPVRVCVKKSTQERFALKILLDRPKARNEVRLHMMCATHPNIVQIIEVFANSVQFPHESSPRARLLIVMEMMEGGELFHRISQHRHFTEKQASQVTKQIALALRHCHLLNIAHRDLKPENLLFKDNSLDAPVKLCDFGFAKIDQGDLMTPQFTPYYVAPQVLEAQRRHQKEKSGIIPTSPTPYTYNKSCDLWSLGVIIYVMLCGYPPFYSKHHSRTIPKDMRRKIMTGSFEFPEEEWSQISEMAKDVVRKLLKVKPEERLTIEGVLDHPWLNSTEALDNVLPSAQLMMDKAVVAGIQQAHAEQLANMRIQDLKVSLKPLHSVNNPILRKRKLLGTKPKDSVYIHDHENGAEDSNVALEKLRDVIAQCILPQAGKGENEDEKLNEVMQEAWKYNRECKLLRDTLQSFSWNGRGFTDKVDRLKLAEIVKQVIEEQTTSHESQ
Excerpt: To identify new SUMOylation substrates and to study the function of SUMOylation the Ubc9/substrate dimerisation-dependent SUMOylation system (USDDS) was developed which consists of fusions of the SUMOylation substrate and of the SUMO-conjugating enzyme Ubc9 to the chemically activatable heterodimerisation domains FKBP and FRB, respectively, as shown in FIG. 2. When the substrate protein fused to FKBP is coexpressed with Ubc9-FRB, treatment of HEK293 cells with the rapamycin-related dimerizer AP21967 induces SUMOylation of the substrate protein fused to FKBP at its specific SUMOylation site. […] Dependent on an EcoRl site in the coding sequence, seven C-terminal amino acids of the human STAT1a in the STAT1-FKBP/FRB fusion proteins are missing. For the SUMOylation analysis HEK293 (human embryonic kidney cells) cells have been used. HEK293 cells were cultured in Dulbecco's modified Eagle's medium with high glucose, complemented with 10% fetal calf serum, 2 mM L-glutamine, 100 U/ml penicillin and […] streptomycin. We performed transfection of HEK293 cells using the polyethylenimine transfection reagent. HEK293 cells of a fresh confluent 10 cm plate were transferred on a 12-well plate. After 12-24 h incubation about 70% cell confluence is reached. For each well 45 μl of serum/antibiotic free DMEM medium is mixed with 750 ng of the transfection-purity expression vector DNA (all together 47 μl) and vortexed. Then, 3 μl of vortexed polyethylenimin stock solution (1 mg/ml) is added and the mixture is vortexed. After incubation at room temperature for 10 min 450 μl fresh DMEM with antibiotics is added to the mixture and vortexed. The medium on the cells was then completely removed and immediately, the 500 μl transfection mix was added carefully to each well. The 12 well plate was rocked to ensure a proper distribution of the DNA/transfection reagent complex. After an incubation of the cells for 24 h at a 37° C. in a humidified CO2-incubator (5%) the cells were lysed in 150 μl Laemmli (2×) gel loading buffer (160 mM Tris-HCL, pH 6.8, 4% (w/v) sodium dodecyl sulphate (SDS), 20% (v/v) glycerol, 0.5% β-mercaptoethanol (v/v), 0.008% (w/v) bromophenol blue) and incubated for 10 min at 95° C. For western blot analysis the proteins were separated by SDS-PAGE, blotted on a PVDF membrane and developed with specific primary antibodies (α-Ubc9 (H81, Santa Cruz), α-pY701-STAT1 (Tyr701, Cell Signaling), α-STAT1 (Cell Signaling), α-p53 (1C12, Cell Signaling), α-SUMO1 (Cell Signaling), a horseradish peroxidase (HRP)-conjugated secondary antibody (different companies), the ECL+ (Amersham) or Immobilon™ Western (Millipore) and the LAS-3000 imaging system (Fuji).
As shown above, the SUMOylation of a protein of interest can be induced by the heterodimerisation with a binding protein fused to Ubc9. To find out if Trans-SUMOylation is useful for the characterisation of common protein interactions, protein binding pairs well known from the literature or found in two hybrid screens. […] Therefore the protein pairs were coexpressed with EGFP-SUMO1 in HEK293 cells and after 24h the transfectants were lysed and the protein extracts were analyzed in western blots.
Protein-protein interactions described in the cited references were tested for Trans-SUMOylation. Each specific protein-protein interaction was tested by coexpression of different combinations of protein 1 fused to Ubc9 (U) with protein 2 mostly fused two a tag (HA, FLAG, Myc, GST, ST). (++), strong TransSUMOylation; (+), TransSUMOylation; (+/−) weak TransSUMOylation; (−) no detectable TransSUMOylation; (MEKK1ca) the activated MAP3 kinase MEKK1, that can enhance protein SUMOylation, was coexpressed.
Protein-protein interaction of each pair of protein 1/protein 2 was tested by coexpression of different combinations of a protein 1 fused to Ubc9 (U) with protein 2 mostly fused two a Tag (HA, FLAG, GST, ST). […]

p53-U = target: T6, p53-U (Homo sapiens, UniProt P04637+P63279); experiment: Trans-SUMOylation by p53-U; assay type: cell-based; conditions: protein 2 construct coexpressed with P53-U (p53-U) and EGFP-SUMO1 in HEK293; western blot; Table 1
T6 construct: expressed in transfected cells; host or cells: HEK293

STAT1 = experiment: Interplay of STAT1 Y701 phosphorylation and K703 SUMOylation by USDDS, western blot; assay type: cell-based, human; conditions: HEK293, USDDS with AP21967 1 μM and interferon-β, any stimulation scenario
STAT1-U = target: T7, STAT1-U (Homo sapiens, UniProt P42224+P63279); experiment: Trans-SUMOylation by STAT1-U; assay type: cell-based; conditions: protein 2 construct coexpressed with STAT1-U and EGFP-SUMO1 in HEK293; western blot; Table 1
T7 construct: expressed in transfected cells; host or cells: HEK293
T7 sequence (P42224+P63279 fused): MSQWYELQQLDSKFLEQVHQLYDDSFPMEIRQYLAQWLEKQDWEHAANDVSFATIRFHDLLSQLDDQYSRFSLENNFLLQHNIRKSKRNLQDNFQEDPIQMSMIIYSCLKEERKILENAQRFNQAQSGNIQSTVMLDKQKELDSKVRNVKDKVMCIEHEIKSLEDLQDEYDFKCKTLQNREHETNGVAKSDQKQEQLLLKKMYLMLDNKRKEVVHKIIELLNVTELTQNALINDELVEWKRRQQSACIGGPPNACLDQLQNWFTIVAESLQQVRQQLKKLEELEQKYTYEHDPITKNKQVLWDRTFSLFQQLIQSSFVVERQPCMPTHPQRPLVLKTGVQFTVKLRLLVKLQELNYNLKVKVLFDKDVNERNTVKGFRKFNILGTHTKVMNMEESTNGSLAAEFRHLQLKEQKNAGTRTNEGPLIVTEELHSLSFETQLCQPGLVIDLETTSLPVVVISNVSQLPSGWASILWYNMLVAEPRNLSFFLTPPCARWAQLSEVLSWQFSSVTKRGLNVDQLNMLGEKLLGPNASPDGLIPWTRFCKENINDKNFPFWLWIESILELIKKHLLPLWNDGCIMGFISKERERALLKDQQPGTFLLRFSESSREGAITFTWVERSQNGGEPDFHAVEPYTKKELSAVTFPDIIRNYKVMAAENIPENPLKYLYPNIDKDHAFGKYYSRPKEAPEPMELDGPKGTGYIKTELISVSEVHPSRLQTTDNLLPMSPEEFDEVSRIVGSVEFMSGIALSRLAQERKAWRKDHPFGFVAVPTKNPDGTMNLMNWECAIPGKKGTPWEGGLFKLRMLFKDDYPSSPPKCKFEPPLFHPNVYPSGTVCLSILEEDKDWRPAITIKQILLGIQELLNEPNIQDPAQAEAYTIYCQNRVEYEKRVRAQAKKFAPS

CSNK2B-U = target: T8, CSNK2B-U (Homo sapiens, UniProt P63279+P67870); experiment: Trans-SUMOylation by CSNK2B-U; assay type: cell-based; conditions: protein 2 construct coexpressed with CSNK2B-U and EGFP-SUMO1 in HEK293; western blot; Table 1
T8 construct: expressed in transfected cells; host or cells: HEK293

STAT1-FRB and STAT1-FKBP = target: T9, STAT1-FRB and STAT1-FKBP (Homo sapiens, UniProt P42224+P42345+P62942); experiment: USDDS: AP21967-induced in vivo SUMOylation of STAT1 fusion proteins, western blot; assay type: cell-based; conditions: HEK293
T9 construct: seven C-terminal amino acids of the human STAT1a in the STAT1-FKBP/FRB fusion proteins are missing; FKBP domain (in STAT1-FKBP); expressed in transfected cells; host or cells: HEK293
T9 sequence (P42224 1-743 limits assumed): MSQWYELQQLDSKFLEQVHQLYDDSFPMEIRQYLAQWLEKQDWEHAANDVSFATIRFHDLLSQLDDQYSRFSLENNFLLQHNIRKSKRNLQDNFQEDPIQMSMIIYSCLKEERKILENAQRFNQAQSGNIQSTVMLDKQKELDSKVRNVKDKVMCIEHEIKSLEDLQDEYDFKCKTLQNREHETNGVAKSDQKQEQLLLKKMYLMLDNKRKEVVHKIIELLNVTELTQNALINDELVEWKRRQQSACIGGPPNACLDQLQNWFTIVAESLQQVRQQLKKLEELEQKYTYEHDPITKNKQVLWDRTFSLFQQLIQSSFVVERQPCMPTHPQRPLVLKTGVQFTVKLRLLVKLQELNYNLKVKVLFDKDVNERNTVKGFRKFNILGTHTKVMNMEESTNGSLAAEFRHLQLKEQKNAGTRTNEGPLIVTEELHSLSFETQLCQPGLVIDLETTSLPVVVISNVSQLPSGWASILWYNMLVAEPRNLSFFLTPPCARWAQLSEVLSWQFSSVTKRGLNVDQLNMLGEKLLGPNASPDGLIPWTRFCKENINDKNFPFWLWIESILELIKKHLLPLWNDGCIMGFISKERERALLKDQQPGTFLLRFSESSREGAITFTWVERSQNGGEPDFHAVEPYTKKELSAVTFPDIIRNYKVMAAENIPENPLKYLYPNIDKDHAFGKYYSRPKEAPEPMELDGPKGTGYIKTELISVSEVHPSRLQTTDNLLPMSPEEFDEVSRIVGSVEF
T9 sequence (P63279 whole entry partner, the tested form may be a part): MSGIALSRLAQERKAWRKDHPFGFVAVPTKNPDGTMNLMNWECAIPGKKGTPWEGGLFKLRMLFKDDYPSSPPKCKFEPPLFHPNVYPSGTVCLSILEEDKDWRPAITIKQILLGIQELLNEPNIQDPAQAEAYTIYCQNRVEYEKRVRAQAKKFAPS
T9 sequence (P62942 2-108 limits assumed): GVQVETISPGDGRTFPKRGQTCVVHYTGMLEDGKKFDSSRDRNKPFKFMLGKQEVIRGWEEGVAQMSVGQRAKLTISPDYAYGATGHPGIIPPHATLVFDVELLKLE
T9 sequence (P42345 2021-2113 limits assumed): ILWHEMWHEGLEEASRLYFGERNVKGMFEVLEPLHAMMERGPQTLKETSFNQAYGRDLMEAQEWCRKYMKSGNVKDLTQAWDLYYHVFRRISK
Excerpt: (§1) To identify new SUMOylation substrates and to study the function of SUMOylation the Ubc9/substrate dimerisation-dependent SUMOylation system (USDDS) was developed which consists of fusions of the SUMOylation substrate and of the SUMO-conjugating enzyme Ubc9 to the chemically activatable heterodimerisation domains FKBP and FRB, respectively, as shown in FIG. 2. When the substrate protein fused to FKBP is coexpressed with Ubc9-FRB, treatment of HEK293 cells with the rapamycin-related dimerizer AP21967 induces SUMOylation of the substrate protein fused to FKBP at its specific SUMOylation site. […] Dependent on an EcoRl site in the coding sequence, seven C-terminal amino acids of the human STAT1a in the STAT1-FKBP/FRB fusion proteins are missing. For the SUMOylation analysis HEK293 (human embryonic kidney cells) cells have been used. HEK293 cells were cultured in Dulbecco's modified Eagle's medium with high glucose, complemented with 10% fetal calf serum, 2 mM L-glutamine, 100 U/ml penicillin and […] streptomycin. We performed transfection of HEK293 cells using the polyethylenimine transfection reagent. HEK293 cells of a fresh confluent 10 cm plate were transferred on a 12-well plate. […]
(§2) When p53-FRB or STAT1-FRB were coexpressed with Ubc9-FKBP together with EGFP-SUMO1, no significant EGFP-SUMO1 conjugation of STAT1-FRB and of p53-FRB could be detected (FIG. 3A,B). […]

p53-FRB and p53-FKBP = experiment: USDDS: AP21967-induced in vivo SUMOylation of p53 fusion proteins, western blot; assay type: cell-based, human; conditions: HEK293
Excerpt: as §1, §2

T1 sequence (P49137+P63279 fused): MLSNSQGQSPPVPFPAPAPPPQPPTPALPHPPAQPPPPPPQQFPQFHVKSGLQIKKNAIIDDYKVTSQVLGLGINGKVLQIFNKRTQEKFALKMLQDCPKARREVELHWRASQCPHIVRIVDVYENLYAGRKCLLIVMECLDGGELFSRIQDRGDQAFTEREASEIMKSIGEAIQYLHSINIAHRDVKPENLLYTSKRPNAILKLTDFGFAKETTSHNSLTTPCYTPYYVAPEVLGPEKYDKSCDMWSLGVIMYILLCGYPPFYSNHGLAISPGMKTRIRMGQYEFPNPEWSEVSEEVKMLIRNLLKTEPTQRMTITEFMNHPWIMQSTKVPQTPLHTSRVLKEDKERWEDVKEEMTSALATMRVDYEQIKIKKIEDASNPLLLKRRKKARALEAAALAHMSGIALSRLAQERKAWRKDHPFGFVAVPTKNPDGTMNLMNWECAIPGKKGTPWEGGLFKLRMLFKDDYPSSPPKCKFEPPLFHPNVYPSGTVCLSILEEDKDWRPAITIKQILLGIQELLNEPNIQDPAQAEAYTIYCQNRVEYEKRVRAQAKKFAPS

GST-FOS: FOS fused to GST tag
Trans-SUMOylation (MK2-U; Table 2): −

HA-JUN: JUN fused to HA tag
Trans-SUMOylation (JUN-U): + | Trans-SUMOylation (MK2-U; Table 2): (+/−)

HA-HSP27: HSP27 fused to HA tag
Trans-SUMOylation (U-MK2; Table 1): − | Trans-SUMOylation (MK2-U; Table 1): −

HA-JNK2: JNK2 fused to HA tag
Trans-SUMOylation (JUN-U): − | Trans-SUMOylation (U-MK2; Table 2): − | Trans-SUMOylation (U-p38α; Table 2): − | Trans-SUMOylation (U-MK5): − | Trans-SUMOylation (p53-U): −

ERK1: ERK1, protein 2 construct without tag
Trans-SUMOylation (U-MK2; Table 2): + | Trans-SUMOylation (U-p38α; Table 1): + | Trans-SUMOylation (p53-U): −

STAT1-FKBP: human STAT1a fused to FKBP heterodimerisation domain
double modification of STAT1 by SUMOylation and Y701 phosphorylation (STAT1): no double modification | Trans-SUMOylation (MK2-U; Table 2): − | Trans-SUMOylation (STAT1-U): −

p53K386R-ST(377-389): p53K386R fused to SUMOylation site tag 377-389
Trans-SUMOylation (CSNK2B-U): + | Trans-SUMOylation (U-MK2; Table 2): −

CO[C@H]1[C@@H](O)[C@H](C)C[C@H](C)/C=C/C=C/C=C(\C)[C@@H](c2c[nH]c3c(C)cccc23)C[C@@H]2CC[C@@H](C)[C@@](O)(O2)C(=O)C(=O)N2CCCC[C@H]2C(=O)O[C@H]([C@H](C)C[C@@H]2CC[C@@H](O)[C@H](OC)C2)C[C@H](O)[C@H](C)/C=C(\C)[C@H]1O [AP21967]
SUMOylation of STAT1-FKBP (STAT1-FRB and STAT1-FKBP; STAT1-FKBP in combination with Ubc9-FRB and EGFP-SUMO1, AP21967): induced SUMOylation | SUMOylation of STAT1-FRB (STAT1-FRB and STAT1-FKBP; STAT1-FRB coexpressed with Ubc9-FKBP and EGFP-SUMO1, AP21967 1 μM, western blot α-STAT1): strongly enhanced SUMOylation | SUMOylation of p53-FKBP (p53-FRB and p53-FKBP; p53-FKBP in combination with Ubc9-FRB and EGFP-SUMO1, AP21967): induced SUMOylation | SUMOylation of p53-FRB (p53-FRB and p53-FKBP; p53-FRB coexpressed with Ubc9-FKBP and EGFP-SUMO1, AP21967 1 μM, western blot α-p53): strongly enhanced SUMOylation

— patent publication US8551717B2, “Method for determining sumoylation” (Medizinische Hochschule Hannover, priority 2008, dated 2013)
